Measurements from patent publication US20250361314A1 (SHANGHAI HUAOTA BIOPHARMACEUTICAL, published 2025).

T1: Human CD39 on CHOK1-huCD39-10B6 cells overexpressing CD39 (human, UniProt P49961 1-510)
T1 sequence (looked up): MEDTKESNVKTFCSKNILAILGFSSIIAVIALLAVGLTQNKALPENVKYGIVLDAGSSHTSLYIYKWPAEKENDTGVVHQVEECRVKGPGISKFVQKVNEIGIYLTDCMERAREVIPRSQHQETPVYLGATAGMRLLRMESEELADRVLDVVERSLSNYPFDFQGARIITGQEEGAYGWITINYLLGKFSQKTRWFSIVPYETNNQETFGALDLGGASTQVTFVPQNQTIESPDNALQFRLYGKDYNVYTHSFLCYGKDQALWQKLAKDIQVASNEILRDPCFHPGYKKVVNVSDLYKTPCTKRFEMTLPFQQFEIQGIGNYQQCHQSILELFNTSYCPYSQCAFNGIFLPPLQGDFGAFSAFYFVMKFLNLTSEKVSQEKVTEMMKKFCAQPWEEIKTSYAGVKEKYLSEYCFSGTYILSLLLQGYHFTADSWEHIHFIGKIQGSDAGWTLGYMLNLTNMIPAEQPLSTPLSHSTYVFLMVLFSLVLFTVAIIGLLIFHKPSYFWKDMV

T2: Human CD73 antigen (human, UniProt P21589 27-547, limits assumed)
T2 construct: Antigen used as analyte in SPR; also called NT5E
T2 sequence (looked up): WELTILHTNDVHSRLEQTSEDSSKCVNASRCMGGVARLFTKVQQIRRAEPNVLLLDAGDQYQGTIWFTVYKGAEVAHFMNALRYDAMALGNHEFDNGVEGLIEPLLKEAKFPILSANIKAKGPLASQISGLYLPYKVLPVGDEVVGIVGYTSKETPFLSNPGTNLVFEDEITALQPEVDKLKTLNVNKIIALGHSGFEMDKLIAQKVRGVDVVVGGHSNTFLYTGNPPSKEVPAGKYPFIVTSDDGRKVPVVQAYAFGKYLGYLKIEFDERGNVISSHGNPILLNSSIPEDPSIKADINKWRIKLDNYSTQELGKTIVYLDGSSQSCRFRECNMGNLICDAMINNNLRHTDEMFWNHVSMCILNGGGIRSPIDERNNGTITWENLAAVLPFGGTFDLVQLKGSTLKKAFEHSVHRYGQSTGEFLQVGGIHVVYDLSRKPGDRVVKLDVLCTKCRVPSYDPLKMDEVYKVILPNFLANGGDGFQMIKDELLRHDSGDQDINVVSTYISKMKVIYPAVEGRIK

T3: Human CD39 antigen (human, UniProt P49961 38-478)
T3 construct: Antigen used as analyte in SPR; also called ENTPD1
T3 sequence (looked up): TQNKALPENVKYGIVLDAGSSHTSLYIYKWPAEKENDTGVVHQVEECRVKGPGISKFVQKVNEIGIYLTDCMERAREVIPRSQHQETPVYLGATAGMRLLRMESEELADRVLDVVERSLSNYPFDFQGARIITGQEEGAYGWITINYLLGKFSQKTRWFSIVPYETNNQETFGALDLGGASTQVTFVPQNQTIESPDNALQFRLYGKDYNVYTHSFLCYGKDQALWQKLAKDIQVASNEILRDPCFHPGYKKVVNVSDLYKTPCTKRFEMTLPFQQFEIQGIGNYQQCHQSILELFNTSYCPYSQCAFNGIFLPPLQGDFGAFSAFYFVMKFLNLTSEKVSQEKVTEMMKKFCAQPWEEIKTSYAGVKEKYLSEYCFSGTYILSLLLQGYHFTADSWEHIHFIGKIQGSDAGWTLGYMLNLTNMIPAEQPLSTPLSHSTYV


Key:
[1] = biological target: T1, Human CD39 on CHOK1-huCD39-10B6 cells …; assay: cell-based or functional assay
Human CD73 antigen = biological target: T2, Human CD73 antigen; assay: SPR (Biacore 8K), antibody captured on anti-human capture CM5 chip, antigen as analyte, 1:1 model
Experimental: (§1) An Anti-Human Capture-CM5 chip (GE, #BR-1005-30) was prepared using coupling methods of a Human Antibody Capture Kit (GE, #BR-1008-39) and an amino coupling kit (GE, BR-1000-50). The chip was equilibrated at room temperature for 20-30 mins and loaded into a Biacore 8K instrument. The antigen and antibody were diluted to an experimental working concentration using an equilibration buffer. The antigens were diluted with the equilibrium buffer to 50 nM, and then diluted three-fold for seven concentration gradients, and two zero concentrations (i.e., the equilibrium buffer) and one repeat concentration (typically the lowest concentration repeat) were set. Experimental analysis was performed on 10 antigen concentrations (2 zero concentrations, 7 gradient concentrations, and 1 repeated concentration) in a cyclic manner according to an order of antibody, antigen, and regeneration. The antigen injection flow rate was 30 μL/min, the binding time was 120 s, and the dissociation time was 600 s. Following the analysis, the data was analyzed using the corresponding analysis program to confirm that there was no obvious reference binding. Using Kinetics and a 1:1 binding model, the data was fit to obtain the kinetic related parameters Ka, Kd, and KD values of the bispecific antibodies and parental control antibodies.

Human CD39 antigen = biological target: T3, Human CD39 antigen; assay: as above
Experimental: as §1

Binder | EC50 (µg/mL), inhibition of CD39 ATPase activity on CHOK1-huCD39-10B6 cells (CellTiter Glo) [1] [µg/mL] | Kd (Human CD73 antigen) [nM] | koff (Human CD73 antigen) [s⁻¹] | kon (Human CD73 antigen) [M⁻¹ s⁻¹] | Kd (Human CD39 antigen) [nM] | koff (Human CD39 antigen) [s⁻¹] | kon (Human CD39 antigen) [M⁻¹ s⁻¹]
CD39/CD73 bispecific antibody 700035 (CD39-VHH-CD73-IgG) (bispecific antibody) heavy: not shown light: DIQMTQSPSSMSASVGDRVTITCKASQNVRTAVVWYQQKPGKAPKALIYLASNRHTGVPDRFSGSGSGTDFTLTISSLQPEDFATYFCLQHWNYPYTFGQGTKLEIKRTVAAPSVFIFPPSDEQLKSGTASVVCLLNNFYPREAKVQWKVDNALQSGNSQESVTEQDSKDSTYSLSSTLTLSKADYEKHKVYACEVTHQGLSSPVTKSFNRGEC | 0.208 | 0.341 | 0.000319 | 935000 | 0.0708 | 9.28e-05 | 1.31e+06
CD39/CD73 bispecific antibody 700038 (CD39-VHH-CD73-IgG) (bispecific antibody) heavy: not shown light: DIQMTQSPSSLSASVGDRVTITCRASQDVGTAEAWYQQKPGKAPKLLIYWASTRHTGVPSRFSGSGSGTDFTLTISSLQPEDFATYYCQQYSSYPLTFGQGTKLEIKRTVAAPSVFIFPPSDEQLKSGTASVVCLLNNFYPREAKVQWKVDNALQSGNSQESVTEQDSKDSTYSLSSTLTLSKADYEKHKVYACEVTHQGLSSPVTKSFNRGEC | 0.187 | 0.425 | 0.000249 | 587000 | 0.0918 | 9.54e-05 | 1.04e+06
